Source: PMC10384689

Substrate: Oc1ccc(/C=C/c2cc(O)cc(O)c2)cc1
Assay: purified protein
Conditions: PBS pH 7.4, 30 °C, 10 min, 10 uM FAD, 1 mM NADH, 1 uM HpaB, 1 uM HpaC, apparent

B1: EcHpaBC (E. coli 4HPA3H; HpaB + HpaC) (Escherichia coli) (protein)
chain: MKPEDFRASTQRPFTGEEYLKSLQDGREIYIYGERVKDVTTHPAFRNAAASVAQLYDALHKPEMQDSLCWNTDTGSGGYTHKFFRVAKSADDLRHERDAIAEWSRLSYGWMGRTPDYKAAFGCALGGTPGFYGQFEQNARNWYTRIQETGLYFNHAIVNPPIDRHLPTDKVKDVYIKLEKETDAGIIVSGAKVVATNSALTHYNMIGFGSAQVMGENPDFALMFVAPMDADGVKLISRASYEMVAGATGSPYDYPLSSRFDENDAILVMDNVLIPWENVLLYRDFDRCRRWTMEGGFARMYPLQACVRLAVKLDFITALLKKSLECTGTLEFRGVQADLGEVVAWRNTFWALSDSMCSEATPWVNGAYLPDHAALQTYRVLAPMAYAKIKNIIERNVTSGLIYLPSSARDLNNPQIDQYLAKYVRGSNGMDHVQRIKILKLMWDAIGSEFGGRHELYEINYSGSQDEIRLQCLRQAQSSGNMDKMMAMVDRCLSEYDQNGWTVPHLHNNDDINMLDKLLK
- Km: 670 ± 120 µM
- kcat: 0.0135 s⁻¹
- kcat/Km: 20 M⁻¹ s⁻¹
